Measured values taken from paper PMC4613707.
Values belong to the substance of their own block, whether it stands above or below them.

Legend:
[1] = target: FLAG–TSP-5-1C (human); assay: SDS/PAGE under non-reducing and reducing conditions with immunoblot; FLAG-tagged proteins immunoprecipitated with anti-FLAG M2 on rProtein G agarose from conditioned media of transfected COS7 cells, washed in Tris-buffered saline with 2 mM CaCl2, eluted by boiling in SDS sample buffer with or without 100 mM DTT; oligomers formed in the cells
[2] = target: FLAG–mRFP–TSP-5-1C (human); assay: SDS/PAGE under non-reducing and reducing conditions with immunoblot; mRFP-tagged proteins collected with RFP-Trap_A beads from conditioned media of transfected COS7 cells, eluted by boiling in SDS sample buffer with or without 100 mM DTT; immunoblot for RFP (and FLAG, result not shown); oligomers formed in the cells
[3] = target: FLAG–TSP5 (human) (UniProt P49747); assay: SDS/PAGE under non-reducing and reducing conditions with immunoblot; FLAG-tagged proteins immunoprecipitated with anti-FLAG M2 on rProtein G agarose from conditioned media of transfected COS7 cells, washed in Tris-buffered saline with 2 mM CaCl2, eluted by boiling in SDS sample buffer with or without 100 mM DTT; oligomers formed in the cells

Chain of FLAG–TSP5, P49747 21-757 (natural protein; other documents disagree on this pair) (P49747 21-757): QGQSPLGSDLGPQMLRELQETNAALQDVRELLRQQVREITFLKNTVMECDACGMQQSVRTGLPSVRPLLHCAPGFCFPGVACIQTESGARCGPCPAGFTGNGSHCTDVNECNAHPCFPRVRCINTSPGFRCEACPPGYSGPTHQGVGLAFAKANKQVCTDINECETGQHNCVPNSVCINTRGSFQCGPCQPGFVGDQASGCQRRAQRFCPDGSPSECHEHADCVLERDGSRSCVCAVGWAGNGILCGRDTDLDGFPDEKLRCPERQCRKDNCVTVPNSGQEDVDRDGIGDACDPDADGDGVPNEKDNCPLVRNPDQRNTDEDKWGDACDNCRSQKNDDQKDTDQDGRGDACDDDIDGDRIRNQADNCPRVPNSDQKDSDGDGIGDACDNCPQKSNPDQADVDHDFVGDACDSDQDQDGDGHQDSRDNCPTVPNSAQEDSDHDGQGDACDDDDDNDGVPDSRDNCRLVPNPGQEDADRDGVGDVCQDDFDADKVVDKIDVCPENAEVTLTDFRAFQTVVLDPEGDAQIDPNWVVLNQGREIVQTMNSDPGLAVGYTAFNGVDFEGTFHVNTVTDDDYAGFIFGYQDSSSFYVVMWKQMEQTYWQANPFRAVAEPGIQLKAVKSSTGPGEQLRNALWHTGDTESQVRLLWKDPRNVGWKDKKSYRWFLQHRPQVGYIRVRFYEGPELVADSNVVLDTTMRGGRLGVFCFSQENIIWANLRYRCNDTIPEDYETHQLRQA

- stoichiometry N [1]: 5
Substance: FLAG–TSP-5-1C

- stoichiometry N [2]: 5
Substance: FLAG–mRFP–TSP-5-1C

- stoichiometry N [3]: 5
Substance: FLAG–TSP5, P49747 21-757 (natural protein; other documents disagree on this pair)
